Data: article PMC4829482

B1: germacradien-4-ol synthase (GdolS) (Streptomyces citricolor) (protein)
chain: MSDDTSLELPFTHRRNPHQTEAADRHLEWLQRHRELAAVVSGSTYTGWDITELASLVYPESSAEDLALAADLMGFYFLFDDQFDSPLGRRPEQVALICERLSAIAHGTLTAVTSPSERAFADLWRRITLGMTDRWRARAACNWEYYFACHPAEAAGRTIGQPPDREGYLTLRRGTAAMESIFDMIERLGHFEVPQHVMHHPLFRQLRQLAADIPSFTNDVRSFAQESERGDVANLVMIVRRDRCCSTEEACAVVWDEAQRMADRFCDLRDQLPDACRSMSLDPAQRLAAERYADGMALWLAGYLHWESHTRRYHHG

How the values were obtained:
[1] = tested on: CC(C)=CCC/C(C)=C/CC/C(C)=C/CO[P@@](=O)(O)OP(=O)(O)O; assay: steady-state radiochemical kinetics; assay type: biochemical, Streptomyces citricolor; conditions: Mg2+ active site
[2] = substrate: CC(C)=CCC/C(C)=C/CC/C(C)=C/CO[P@@](=O)(O)OP(=O)(O)O; assay: purified protein; conditions: Mg2+ active site

Row | Molecule | Km [1] [µM] | kcat [1] [s⁻¹] | Km [2] [µM] | kcat [2] [s⁻¹] | kcat/Km [2] [M⁻¹ s⁻¹]
1 | germacradien-4-ol synthase (GdolS) (Streptomyces citricolor; D81E) | 0.82 ± 0.11 | 0.01 ± 0.0006 | – | – | –
2 | germacradien-4-ol synthase (GdolS) (Streptomyces citricolor; E307Q) | 2.24 ± 0.16 | 0.013 ± 0.0004 | – | – | –
3 | germacradien-4-ol synthase (GdolS) (Streptomyces citricolor; D84E) | 0.92 ± 0.09 | 0.009 ± 0.0003 | – | – | –
4 | germacradien-4-ol synthase (GdolS) (Streptomyces citricolor; Y303F) | 0.66 ± 0.12 | 0.014 ± 0.006 | – | – | –
5 | B1 | – | – | 1.07 ± 0.13 | 0.079 | 73800
